The supplement of paper PMC10567573

B1: ZNF8 (parent)
chain: RIHTGERPYMCKECGKAFSQNSSL

Variants of: B1
Assay: protein stability index of a GFP-peptide fusion (GPS, HEK-293T) (PSI 1-6); higher = more stable
Details: c terminus: a fixed tail appended
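Note: lentivirally expressed fusions sorted by FACS into six bins by GFP to DsRed ratio, PSI derived from sequencing read proportions per bin multiplied by bin number.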

| Variant | protein stability index |
| --- | --- |
| RISTGERPYMCKECGKAFSQNSSL | 2.38 |
| RITTGERPYMCKECGKAFSQNSSL | 2.8 |
| RIVTGERPYMCKECGKAFSQNSSL | 2.05 |
| RIWTGERPYMCKECGKAFSQNSSL | 2.05 |
| RIYTGERPYMCKECGKAFSQNSSL | 2.33 |
| RIHAGERPYMCKECGKAFSQNSSL | 2.21 |
| RIHCGERPYMCKECGKAFSQNSSL | 3.04 |
| RIHDGERPYMCKECGKAFSQNSSL | 2.74 |
| RIHEGERPYMCKECGKAFSQNSSL | 3.16 |
| RIHFGERPYMCKECGKAFSQNSSL | 2.42 |
| RIHGGERPYMCKECGKAFSQNSSL | 2.19 |
| RIHHGERPYMCKECGKAFSQNSSL | 2.43 |
| RIHIGERPYMCKECGKAFSQNSSL | 2.68 |
| RIHKGERPYMCKECGKAFSQNSSL | 2.03 |
| RIHLGERPYMCKECGKAFSQNSSL | 2.16 |
| RIHMGERPYMCKECGKAFSQNSSL | 1.88 |
| RIHNGERPYMCKECGKAFSQNSSL | 2.91 |
| RIHPGERPYMCKECGKAFSQNSSL | 3.3 |
| RIHQGERPYMCKECGKAFSQNSSL | 3.24 |
| RIHRGERPYMCKECGKAFSQNSSL | 2.04 |
| RIHSGERPYMCKECGKAFSQNSSL | 2.81 |
| RIHVGERPYMCKECGKAFSQNSSL | 2.59 |
| RIHWGERPYMCKECGKAFSQNSSL | 1.89 |
| RIHYGERPYMCKECGKAFSQNSSL | 2.1 |

| Variant | protein stability index |
| --- | --- |
| RIHTAERPYMCKECGKAFSQNSSL | 2.98 |
| RIHTCERPYMCKECGKAFSQNSSL | 3.78 |
| RIHTDERPYMCKECGKAFSQNSSL | 2.64 |
| RIHTEERPYMCKECGKAFSQNSSL | 3.37 |
| RIHTFERPYMCKECGKAFSQNSSL | 2.09 |
| RIHTHERPYMCKECGKAFSQNSSL | 2.63 |
| RIHTIERPYMCKECGKAFSQNSSL | 1.83 |
| RIHTKERPYMCKECGKAFSQNSSL | 2.5 |
| RIHTLERPYMCKECGKAFSQNSSL | 2.01 |
| RIHTMERPYMCKECGKAFSQNSSL | 2.62 |
| RIHTNERPYMCKECGKAFSQNSSL | 2.44 |
| RIHTPERPYMCKECGKAFSQNSSL | 3.02 |
| RIHTQERPYMCKECGKAFSQNSSL | 2.47 |
| RIHTRERPYMCKECGKAFSQNSSL | 2.13 |
| RIHTSERPYMCKECGKAFSQNSSL | 2.53 |
| RIHTTERPYMCKECGKAFSQNSSL | 2.31 |
| RIHTVERPYMCKECGKAFSQNSSL | 2.04 |
| RIHTWERPYMCKECGKAFSQNSSL | 2.49 |
| RIHTYERPYMCKECGKAFSQNSSL | 2.73 |
| RIHTGARPYMCKECGKAFSQNSSL | 1.91 |
| RIHTGCRPYMCKECGKAFSQNSSL | 1.68 |
| RIHTGDRPYMCKECGKAFSQNSSL | 2.28 |
| RIHTGFRPYMCKECGKAFSQNSSL | 2.44 |
| RIHTGGRPYMCKECGKAFSQNSSL | 1.5 |

| Variant | protein stability index |
| --- | --- |
| RIHTGHRPYMCKECGKAFSQNSSL | 2.36 |
| RIHTGIRPYMCKECGKAFSQNSSL | 1.68 |
| RIHTGKRPYMCKECGKAFSQNSSL | 2.35 |
| RIHTGLRPYMCKECGKAFSQNSSL | 2 |
| RIHTGMRPYMCKECGKAFSQNSSL | 2.7 |
| RIHTGNRPYMCKECGKAFSQNSSL | 2.24 |
| RIHTGPRPYMCKECGKAFSQNSSL | 2.34 |
| RIHTGQRPYMCKECGKAFSQNSSL | 2.2 |
| RIHTGRRPYMCKECGKAFSQNSSL | 1.71 |
| RIHTGSRPYMCKECGKAFSQNSSL | 1.33 |
| RIHTGTRPYMCKECGKAFSQNSSL | 2.36 |
| RIHTGVRPYMCKECGKAFSQNSSL | 1.98 |
| RIHTGWRPYMCKECGKAFSQNSSL | 2.27 |
| RIHTGYRPYMCKECGKAFSQNSSL | 1.88 |
| RIHTGEAPYMCKECGKAFSQNSSL | 2.6 |
| RIHTGECPYMCKECGKAFSQNSSL | 3.77 |
| RIHTGEDPYMCKECGKAFSQNSSL | 3.36 |
| RIHTGEEPYMCKECGKAFSQNSSL | 3.85 |
| RIHTGEFPYMCKECGKAFSQNSSL | 2.99 |
| RIHTGEGPYMCKECGKAFSQNSSL | 3.23 |
| RIHTGEHPYMCKECGKAFSQNSSL | 3.36 |
| RIHTGEIPYMCKECGKAFSQNSSL | 2.6 |
| RIHTGEKPYMCKECGKAFSQNSSL | 2.35 |
| RIHTGELPYMCKECGKAFSQNSSL | 2.65 |

| Variant | protein stability index |
| --- | --- |
| RIHTGEMPYMCKECGKAFSQNSSL | 2.77 |
| RIHTGENPYMCKECGKAFSQNSSL | 3.38 |
| RIHTGEPPYMCKECGKAFSQNSSL | 2.44 |
| RIHTGEQPYMCKECGKAFSQNSSL | 3.2 |
| RIHTGESPYMCKECGKAFSQNSSL | 2.53 |
| RIHTGETPYMCKECGKAFSQNSSL | 4 |
| RIHTGEVPYMCKECGKAFSQNSSL | 2.37 |
| RIHTGEWPYMCKECGKAFSQNSSL | 2.9 |
| RIHTGEYPYMCKECGKAFSQNSSL | 2.39 |
| RIHTGERAYMCKECGKAFSQNSSL | 2.75 |
| RIHTGERCYMCKECGKAFSQNSSL | 2.31 |
| RIHTGERDYMCKECGKAFSQNSSL | 3.23 |
| RIHTGEREYMCKECGKAFSQNSSL | 3.22 |
| RIHTGERFYMCKECGKAFSQNSSL | 2.28 |
| RIHTGERGYMCKECGKAFSQNSSL | 2.53 |
| RIHTGERHYMCKECGKAFSQNSSL | 2.12 |
| RIHTGERIYMCKECGKAFSQNSSL | 2.43 |
| RIHTGERKYMCKECGKAFSQNSSL | 2.03 |
| RIHTGERLYMCKECGKAFSQNSSL | 2.34 |
| RIHTGERMYMCKECGKAFSQNSSL | 2.98 |
| RIHTGERNYMCKECGKAFSQNSSL | 2.04 |
| RIHTGERQYMCKECGKAFSQNSSL | 2.99 |
| RIHTGERRYMCKECGKAFSQNSSL | 2.85 |
| RIHTGERSYMCKECGKAFSQNSSL | 2.44 |

| Variant | protein stability index |
| --- | --- |
| RIHTGERTYMCKECGKAFSQNSSL | 2.96 |
| RIHTGERVYMCKECGKAFSQNSSL | 2.67 |
| RIHTGERWYMCKECGKAFSQNSSL | 2.19 |
| RIHTGERYYMCKECGKAFSQNSSL | 2.62 |
| RIHTGERPAMCKECGKAFSQNSSL | 3.88 |
| RIHTGERPCMCKECGKAFSQNSSL | 4.27 |
| RIHTGERPDMCKECGKAFSQNSSL | 3.29 |
| RIHTGERPEMCKECGKAFSQNSSL | 3.27 |
| RIHTGERPFMCKECGKAFSQNSSL | 3.21 |
| RIHTGERPGMCKECGKAFSQNSSL | 3.21 |
| RIHTGERPHMCKECGKAFSQNSSL | 2.86 |
| RIHTGERPIMCKECGKAFSQNSSL | 2.21 |
| RIHTGERPKMCKECGKAFSQNSSL | 1.83 |
| RIHTGERPLMCKECGKAFSQNSSL | 2.43 |
| RIHTGERPMMCKECGKAFSQNSSL | 2.6 |
| RIHTGERPNMCKECGKAFSQNSSL | 2.7 |
| RIHTGERPPMCKECGKAFSQNSSL | 2.48 |
| RIHTGERPQMCKECGKAFSQNSSL | 2.75 |
| RIHTGERPRMCKECGKAFSQNSSL | 2.02 |
| RIHTGERPSMCKECGKAFSQNSSL | 2.2 |
| RIHTGERPTMCKECGKAFSQNSSL | 2.42 |
| RIHTGERPVMCKECGKAFSQNSSL | 2.71 |
| RIHTGERPWMCKECGKAFSQNSSL | 2.19 |
| RIHTGERPYACKECGKAFSQNSSL | 2.64 |

| Variant | protein stability index |
| --- | --- |
| RIHTGERPYCCKECGKAFSQNSSL | 3.11 |
| RIHTGERPYDCKECGKAFSQNSSL | 2.84 |
| RIHTGERPYECKECGKAFSQNSSL | 3.1 |
| RIHTGERPYFCKECGKAFSQNSSL | 2.31 |
| RIHTGERPYGCKECGKAFSQNSSL | 2.7 |
| RIHTGERPYHCKECGKAFSQNSSL | 2.52 |
| RIHTGERPYICKECGKAFSQNSSL | 2.69 |
| RIHTGERPYKCKECGKAFSQNSSL | 1.75 |
| RIHTGERPYLCKECGKAFSQNSSL | 2.74 |
| RIHTGERPYNCKECGKAFSQNSSL | 2.12 |
| RIHTGERPYPCKECGKAFSQNSSL | 2.62 |
| RIHTGERPYQCKECGKAFSQNSSL | 3.16 |
| RIHTGERPYRCKECGKAFSQNSSL | 1.95 |
| RIHTGERPYSCKECGKAFSQNSSL | 2.26 |
| RIHTGERPYTCKECGKAFSQNSSL | 3.03 |
| RIHTGERPYVCKECGKAFSQNSSL | 2.24 |
| RIHTGERPYWCKECGKAFSQNSSL | 2.3 |
| RIHTGERPYYCKECGKAFSQNSSL | 2.24 |
| RIHTGERPYMAKECGKAFSQNSSL | 2.73 |
| RIHTGERPYMDKECGKAFSQNSSL | 2.78 |
| RIHTGERPYMEKECGKAFSQNSSL | 3.42 |
| RIHTGERPYMFKECGKAFSQNSSL | 2.36 |
| RIHTGERPYMGKECGKAFSQNSSL | 3.28 |
| RIHTGERPYMHKECGKAFSQNSSL | 2.75 |

| Variant | protein stability index |
| --- | --- |
| RIHTGERPYMIKECGKAFSQNSSL | 2.19 |
| RIHTGERPYMKKECGKAFSQNSSL | 3.08 |
| RIHTGERPYMLKECGKAFSQNSSL | 2.68 |
| RIHTGERPYMMKECGKAFSQNSSL | 2.82 |
| RIHTGERPYMNKECGKAFSQNSSL | 2.81 |
| RIHTGERPYMPKECGKAFSQNSSL | 2.84 |
| RIHTGERPYMQKECGKAFSQNSSL | 3.04 |
| RIHTGERPYMRKECGKAFSQNSSL | 2.67 |
| RIHTGERPYMSKECGKAFSQNSSL | 2.99 |
| RIHTGERPYMTKECGKAFSQNSSL | 2.48 |
| RIHTGERPYMVKECGKAFSQNSSL | 2.72 |
| RIHTGERPYMWKECGKAFSQNSSL | 1.98 |
| RIHTGERPYMYKECGKAFSQNSSL | 2.28 |
| RIHTGERPYMCAECGKAFSQNSSL | 3.12 |
| RIHTGERPYMCCECGKAFSQNSSL | 2.16 |
| RIHTGERPYMCDECGKAFSQNSSL | 3.02 |
| RIHTGERPYMCEECGKAFSQNSSL | 2.9 |
| RIHTGERPYMCFECGKAFSQNSSL | 1.8 |
| RIHTGERPYMCGECGKAFSQNSSL | 2.38 |
| RIHTGERPYMCHECGKAFSQNSSL | 1.96 |
| RIHTGERPYMCIECGKAFSQNSSL | 2.17 |
| RIHTGERPYMCLECGKAFSQNSSL | 1.72 |
| RIHTGERPYMCMECGKAFSQNSSL | 2.52 |
| RIHTGERPYMCNECGKAFSQNSSL | 2.66 |

| Variant | protein stability index |
| --- | --- |
| RIHTGERPYMCPECGKAFSQNSSL | 2.54 |
| RIHTGERPYMCQECGKAFSQNSSL | 2.11 |
| RIHTGERPYMCRECGKAFSQNSSL | 1.99 |
| RIHTGERPYMCSECGKAFSQNSSL | 2.46 |
| RIHTGERPYMCTECGKAFSQNSSL | 2.15 |
| RIHTGERPYMCVECGKAFSQNSSL | 2.07 |
| RIHTGERPYMCWECGKAFSQNSSL | 1.51 |
| RIHTGERPYMCYECGKAFSQNSSL | 2.27 |
| RIHTGERPYMCKACGKAFSQNSSL | 2.08 |
| RIHTGERPYMCKCCGKAFSQNSSL | 1.85 |
| RIHTGERPYMCKDCGKAFSQNSSL | 1.39 |
| RIHTGERPYMCKFCGKAFSQNSSL | 1.59 |
| RIHTGERPYMCKGCGKAFSQNSSL | 1.94 |
| RIHTGERPYMCKHCGKAFSQNSSL | 2.14 |
| RIHTGERPYMCKICGKAFSQNSSL | 1.88 |
| RIHTGERPYMCKKCGKAFSQNSSL | 1.78 |
| RIHTGERPYMCKLCGKAFSQNSSL | 2.3 |
| RIHTGERPYMCKMCGKAFSQNSSL | 2.05 |
| RIHTGERPYMCKNCGKAFSQNSSL | 2.35 |
| RIHTGERPYMCKPCGKAFSQNSSL | 2.07 |
